Assay results reported in PMC4484809.

Key:
[1] = target: Xpo1 (full-length, 1–1071) (S. cerevisiae) (UniProt P30822)
[2] = target: Xpo1 (full-length, 1–1071) (S. cerevisiae) (UniProt P30822); remark: listed apart in the source
[3] = target: Xpo1 (full-length, 1–1071) (S. cerevisiae) (UniProt P30822); remark: listed apart in the source

Substance	RNA duplex unwinding (helicase) by Ded1 (50 nM) with Xpo1 (550 nM) and Ran[GTP]Q71L (650 nM); fold inhibition of k unwind [1]	RNA-stimulated ATPase activity of Ded1 (500 nM, 320 μg/mL whole-cell yeast RNA) with Xpo1 0.55–11 μM and Ran[GTP]Q71L 0.65–13 μM added together; fold reduction [2]	Michaelis-Menten analysis of Ded1 ATPase (500 nM) against whole cell yeast RNA, with ~10 fold molar excess of Xpo1 and Ran[GTP]Q71L; fold change of the apparent KM for RNA [3]	RNA duplex unwinding (helicase) by Ded1 I13A (50 nM) with Xpo1 (550 nM) and Ran[GTP]Q71L (650 nM); fold inhibition of k unwind [1]
Ded1 (full-length, 1–604) (from UniProt P06634 1-604) (natural protein)	5 fold	2 fold	50 fold	
Ded1_(I13A) (full-length Ded1, I13A) (from UniProt P06634 1-604) (natural protein)				< 2 fold
